# Test system: Bacillus subtilis
# Test: cleaved RNA product abundance (RNA/gDNA barcode ratio) relative to median wild-type variant (ratio to wild type); higher = more accumulation of the downstream cleavage product
# How it was run: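 Sequencing of barcodes from gel-selected, reverse-transcribed cleaved RNA and from genomic DNA, with UMI collapsing, yielded a per-construct RNA:gDNA ratio. Scaled to the median construct with the unmutated site, this ratio is the cleaved product abundance. The barcoded reporters (truncated aprE or tetM mRNAs with mutagenized RNase Y cleavage-site windows) were integrated into the B. subtilis chromosome, and cultures grew in LB at 37°C from OD600 0.0003 to 0.3.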
# [1] = experiment (reporter, strain, medium): exp 2b: truncated aprE reporter, strain BJT200, cleavage site: cggR-gapA (positions -7 to +36 mutated)
# [2] = experiment (reporter, strain, medium): exp 4a: truncated aprE reporter, strain BJT201 with 2% xylose (RNase J1 expressed), cleavage site: cggR-gapA (positions -7 to +36 mutated)
# [3] = experiment (reporter, strain, medium): exp 6: tetM reporter, strain 168, cleavage site: cggR-gapA (positions -7 to +36 mutated)
# [4] = experiment (reporter, strain, medium): exp 8a: truncated aprE reporter, strain BJT201 with 2% xylose (RNase J1 expressed), cleavage site: glnRA (positions -5 to +31 mutated)
Sequence,cleaved RNA product abundance [1],cleaved RNA product abundance [2],cleaved RNA product abundance [4],other results
ACAGACGAAGGAGCCGCAAAGAAGTTATTAAGGGATGAATAATCCCCCAATATAAATATCTCTCACTTATTTAAA,0.285,0.36,–,cleaved RNA product abundance [3]: 0.457
ACAGACGAAGGAGCCGCAAAGAAGTTATTAAGGGATGAATAATCCCTCAATATACATCTCTCTCACTTATTTAAA,–,0.206,–,–
CGACATGTCCCGCTTCTTTCATTAATCCCTTAGCAACTGTTTTGCTAAATACATTTACCTTTTAAGAGGAGGAAT,–,–,0.149,–
CGACATGTCCCGCTTCTTTCATTAATCCGTTAGGAACTGTTTTGCTATATATATTTACCTTTTAAGAGGAGGAAT,–,–,0.367,–
CGACATGTCCCGCTTCTTTCATTAATCCGTTAGCAACTGTTTTGCTATATACATTTTCTTTTTAAGAGGAGGAAT,–,–,0.842,–
ACAGACGAAGGAGCCGCAAAGAAGTTATTAAGGGATGAATAATCCCTCAATATAAAGATCTCTCACTTATTTAAA,0.666,0.627,–,–
CGACATGTCCCGCTTCTTTCATTAATCCGTTAATAACTGTTTTGCTATATACATTTACCTTTTAAGAGGAGGAAT,–,–,0.262,–
ACAGACGAAGGAGCCGCAAAGAAGGTATTAAGTGATGAATAATCCCTCAATATAAATATCTCTCACTTATTTAAA,–,0.104,–,–
ACAGACGAAGGAGCCGCATAGAAGTTTTTAAGGGATGAATAATCCCTCAATATAAATATCTCTCACTTATTTAAA,–,0.561,–,–
CGACATGTCCCGCTTCTTTCATTAATTCGTTAGCAACTGTTTTGCTATATACATTTATCTTTTAAGAGGAGGAAT,–,–,1.4,–
CGACATGTCCCGCTTCTTTCATTAATCCGTTACCAACTGTTTTGCTATATACGTTTACCTTTTAAGAGGAGGAAT,–,–,0.253,–
ACAGACGAAGGAGCCGCAAAGAAGTTATTAAGGGTTGAATAATCCCTCTATATAAATATCTCTCACTTATTTAAA,0.157,0.151,–,–
ACAGACGAAGGAGCCGCAAAAAAGTTATTAAGGGATGAATAAACCCTCAATATAAATATCTCTCACTTATTTAAA,0.468,0.631,–,–
CGACATGTCCCGCTTCTTTCATTAATCCAATAGCAACTGTTTTGCTATATACATTTACCTTTTAAGAGGAGGAAT,–,–,0.553,–
ACAGACGAAGGAGCCGCAAAGAAGTTATTAAGGGATGAATAATCCCACAAAATAAATATCTCTCACTTATTTAAA,–,0.256,–,–
ACAGACGAAGGAGCCGCAAAGAAATTATTAAGGGATGAATAATCCCTCAATATATATATCTCTCACTTATTTAAA,–,0.766,–,–
CGACATGTCCCGCTTCTTTCATTAATCAGTTAGCAACTGTTTTGCTATATACATTTACCATTAAGAGGAGGAATT,–,–,1.4,–
ACAGACGAAGGAGCCGCAAAGAAGTTATTGCGGGATGAATAATCCCTCAATATAAATATCTCTCACTTATTTAAA,–,0.869,–,–
ACAGACGAAGGAGCCGCAAAGAAGTTATTAAGGGGTGAATAATTCCTCAATATAAATATCTCTCACTTATTTAAA,–,0.228,–,–
ACAGACGAAGGAGCCGCAAAGAAGTTATTAAGGCAAGAATAATCCCTCAATATAAATATCTCTCACTTATTTAAA,0.104,0.115,–,–
CGACATGTCCCGCTTCTTTCATTAATCCGTTAGCAACTGTTTAGCTATATAAATTTACCTTTTAAGAGGAGGAAT,–,–,0.426,–

Sequence,cleaved RNA product abundance [1],cleaved RNA product abundance [2],cleaved RNA product abundance [4],other results
ACAGACGAAGGAGCCGCAAAGAAGTTTTTAAGGGATGAATAATCCGTCAATATAAATATCTCTCACTTATTTAAA,0.133,0.321,–,–
ACAGACGAAGGAGCCGCAAAGAAGTTATTAAGGGACTAATAATCCCTCAATATAAATATCTCTCACTTATTTAAA,1.03,1.01,–,–
ACAGACGAAGGAGCCGCAAAGAAGTTATTAAGAGATGAATATTCCCTCAATATAAATATCTCTCACTTATTTAAA,–,0.0954,–,–
ACAGACGAAGGAGCCGCAAGGAAGCTATTAAGGGATGAATAATCCCTCAATATAAATATCTCTCACTTATTTAAA,0.644,–,–,–
CGACATGTCCCGCTTCTTTCATTAATCCGTTAGGAACTGTTTTGCTATAAACATTTACCTTTTAAGAGGAGGAAT,–,–,0.289,–
CGACATGTCCCGCTTCTTTCATTAATCCGTTAGCAACTTTTTTGCTATATATATTTACCTTTTAAGAGGAGGAAT,–,–,0.911,–
ACAGACGAAGGAGCCGCAAAGCAGTTATTAAAGGATGAATAATCCCTCAATATAAATATCTCTCACTTATTTAAA,0.136,–,–,–
ACAGACGAAGGAGCCGCAAAGCAATTATTAAGGGATGAATAATCCCTCAATATAAATATCTCTCACTTATTTAAA,–,0.718,–,–
ACAGACGAAGGAGCCGCAAAGAAGCTATTAAGGGAGGAATAATCCCTCAATATAAATATCTCTCACTTATTTAAA,0.287,0.24,–,–
ACAGACGAAGGAGCCGCGAAGAAGTTATTAAGGGATGAATACTCCCTCAATATAAATATCTCTCACTTATTTAAA,–,0.528,–,–
ACAGACGAAGGAGCCGCAAAGAAGTTATTAAGGGATGAATACTCCCTCCATATAAATATCTCTCACTTATTTAAA,0.138,0.218,–,–
CGACATGTCCCGCTTCTTTCATTATTACGTTACCAACTATTTTGCTATATACATTTATCTTTTAAGAGGAGGAAT,–,–,0.242,–
ACAGACGAAGGAGCCGCAAAGAAGTTATTAAGGGATGAATAACCCCTCAATATAAATATCTCTCACTTATTTAAA,0.56,0.609,–,cleaved RNA product abundance [3]: 0.408
ACAGACGAAGGAGCCGCAAAGAAGTTATTAAGTGATGAATACTCCCTCAATATAAATATCTCTCACTTATTTAAA,–,0.181,–,–
ACAGACGAAGGAGCCGCAAAGAAGTTATTAAGAGATGAATAATCCCTCAATATAAAGATCTCTCACTTATTTAAA,–,0.186,–,–
ACAGACGAAGGAGCCGCAAAGAAGTTATTAAGTGATGAATAATGCCTCAATATAAATATCTCTCACTTATTTAAA,0.1,–,–,–
ACAGACGAAGGAGCCGCGAAGAAGTTATTAATGGATGAATAATCCCTCAATATAAATATCTCTCACTTATTTAAA,–,0.214,–,–
ACAGACGAAGGAGCCGCAAAGAAGTTATTAAGGGATGAATAATCCCTCTATATAAATACCTCTCACTTATTTAAA,–,0.407,–,–
CGACATGTCCCGCTTCTTTCATTAATCCGTTAGCAACAGTTTTGATATATACATTTACCTTTTAAGAGGAGGAAT,–,–,0.429,–
ACAGACGAAGGAGCCGCAAAGAAGTTATTAAGCGATGAATAATCCCTCAATATAAAAATCTCTCACTTATTTAAA,0.111,0.111,–,–
ACAGACGAAGGAGCCGCAAAGAAGTTATCAAGGGATGAATTATCCCTCAATATAAATATCTCTCACTTATTTAAA,–,0.25,–,–
